From article PMC6031081, “A Novel UDP-Glycosyltransferase of Rhodiola crenulata Converts Tyrosol to Specifically Produce Icariside D2” (BioMed Research International, 2018)

Substrate: OCCc1ccc(O)cc1
Assay: purified protein
Format: biochemical, Rhodiola crenulata
Conditions: UDP-glucose co-substrate (2 mM), tyrosol varied 0.5-5 mM, 50 mM Tris-HCl, pH 8.6, 30°C, 30 min

B1: RcUGT1 (Rhodiola crenulata) (protein)
chain: MDSDSRPLRVFFFPFMAHGHLIPMVDIARLFSSQGVHSTIITTPLNANYISKTTSLSIKTLPFQASKVGLPDGCENVDMLPSPDLIFKFFQAANLLQKPFENLLELEKPDCLISDIFFPWSVDSAGKFNIPRLVFHGTSFFAMCAMESLKTHKPYKSVSTDSEPFVIPNLPDEIKMTKSQFTVDAWEDTEKGVGKLLADARASGLRSFGVVVNSFYELEPAYADYYKNVLNMKAWCVGPVSVCYRNDEEKIARGKKSAIDDHECLKWLEGKQPDSVVYVCFGSGASFPDEQLRDIALGLEDSGVNFIWVIRRSSESGSEDYLPEGFEDRVEGSGLVIRGWAPQVLILDHPSVGGFVTHCGWNSALEGISAGLPMVTWPLFAEQFFNQKLITDVLKIGVEVGVQKWSRNGEDRVTKEKVEKAVRAVMVGEVAEERRGRARQLGKLAKNAAAKDGSSFIDLHNLLDELKLRRVPLS
notes: 6xHis tag (pQE30), E. coli M15, Ni-NTA purified; primers encode ends MDSDSRP...RRVPLS
  Km: 972.75 ± 104.31 µM
  Vmax: 0.0172 µmol/min/mg
  kcat: 0.0155 ± 0.00044 s⁻¹
